Article PMC10053787, “A New Gene SCY3 Homologous to Scygonadin Showing Antibacterial Activity and a Potential Role in the Sperm Acrosome Reaction of Scylla paramamosain” (International Journal of Molecular Sciences, 2023)

How the values were obtained:
rSCY5 = target: T1, rSCY5; assay: biolayer interferometry (Octet); format: binding, Scylla paramamosain; details: biotinylated protein on Super Streptavidin sensor; progesterone 0.125-4 mM; phosphate-saline buffer pH 7.4, 0.02% Tween 20; room temperature
T1 construct: gene SCY5; biotinylated for BLI

rSCY3 = target: T2, rSCY3 (Scylla paramamosain, UniProt A0AAW0UC28); assay: biolayer interferometry (Octet); format: binding; details: biotinylated protein on Super Streptavidin sensor; progesterone 0.125-4 mM; phosphate-saline buffer pH 7.4, 0.02% Tween 20; room temperature
T2 construct: gene O3P69_004699; precursor printed as 124 aa; biotinylated for BLI
T2 sequence (A0AAW0UC28 11-110): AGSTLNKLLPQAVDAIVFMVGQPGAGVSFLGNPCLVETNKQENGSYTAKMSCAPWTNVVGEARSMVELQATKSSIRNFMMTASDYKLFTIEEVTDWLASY

rSCY4 = target: T3, rSCY4; assay: biolayer interferometry (Octet); format: binding, Scylla paramamosain; details: biotinylated protein on Super Streptavidin sensor; progesterone 0.125-4 mM; phosphate-saline buffer pH 7.4, 0.02% Tween 20; room temperature
T3 construct: gene SCY4; biotinylated for BLI

[1] = target: Recombinant His-tagged SCY1 (Scylla paramamosain); assay: SPR; Biacore T200, CM5 chip; rSCY1-4 immobilised (~200 resonance units), blank or rTrx reference cell; rSCY1-5 diluted in PBS and injected (28.8 to 0.45 µM), multiple cycle kinetics, 25 °C, 120-s association and 120-s dissociation
[2] = target: Recombinant His-tagged SCY2 (Scylla paramamosain); assay: as above

Row | Molecule | Kd (rSCY5) [µM] | Kd (rSCY3) [µM] | Kd (rSCY4) [µM] | Kd [1] [µM] | Kd [2] [µM]
1 | CC(=O)[C@H]1CC[C@H]2[C@@H]3CCC4=CC(=O)CC[C@]4(C)[C@H]3CC[C@]12C [progesterone] | 25300 | 30800 | 2280 |  | 
2 | Recombinant His-tagged SCY2 (natural protein) |  |  |  | 11.3 | 
3 | Recombinant His-tagged SCY3 (natural protein) |  |  |  | 4.12 | 0.62
4 | Recombinant His-tagged SCY4 (natural protein) |  |  |  | 6.86 | 14
5 | Recombinant Trx-tagged SCY5 (natural protein) |  |  |  | 0.14 | 0.15
